Results published in paper PMC9313797.

How the values were obtained:
Experiment in all cases: ELISA
FV712‐1478 = target: FV712‐1478
FV712‐1481 = target: FV712‐1481
FV712‐1484 = target: FV712‐1484
FV712‐1487 = target: FV712‐1487
FV712‐1490 = target: FV712‐1490

“Recombinant tissue factor pathway inhibitor alpha (TFPIα) (from UniProt P10646-1 29-304) (natural protein)” showed a Kd (FV712‐1478) of 0.2 nM, a Kd (FV712‐1481) of 0.2 nM and a Kd (FV712‐1484) of 0.6 nM. It also gave a Kd (FV712‐1487) of 0.6 nM and a Kd (FV712‐1490) of 1 nM.
